Experimental data as given in patent US7012133 (CHILDREN S MEDICAL CENTER, dated 2006).

B3: human eotaxin (ligand)
chain: not shown
modifications: 125I label (Bolton Hunter reagent) where used as radioligand

How the values were obtained:
[1] = biological target: T1, C-C chemokine receptor 3 (CCR3, CKR-3) of human origin, native, on blood eosinophils and basophils (human, UniProt P51677 1-355); assay: heterologous competition of radiolabeled RANTES binding on eosinophils
T1 construct: whole, on cells; also called Eos L2 receptor; eosinophilic chemokine receptor
T1 sequence (looked up): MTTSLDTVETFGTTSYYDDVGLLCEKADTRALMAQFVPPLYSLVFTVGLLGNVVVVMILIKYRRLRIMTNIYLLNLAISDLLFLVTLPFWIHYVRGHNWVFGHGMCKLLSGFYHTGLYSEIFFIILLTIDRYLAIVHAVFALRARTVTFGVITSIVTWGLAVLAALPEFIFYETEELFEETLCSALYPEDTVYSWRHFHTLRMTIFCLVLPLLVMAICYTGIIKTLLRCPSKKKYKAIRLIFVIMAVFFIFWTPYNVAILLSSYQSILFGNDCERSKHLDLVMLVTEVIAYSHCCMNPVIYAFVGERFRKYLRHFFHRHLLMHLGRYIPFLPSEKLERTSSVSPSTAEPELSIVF
Procedure: (§1) Cells transfected with Eos L2 receptors or normal human eosinophils purified (see above) were washed in Hanks Balanced Saline Solution (HBSS), then resuspended in binding buffer: 50 mM HEPES, 1 mM CaCl_2, 5 mM MgCl_2, 0.5% Bovine Serum Albumin (BSA), pH 7.3. In microfuge tubes, 5 ×10^5 cells were incubated with 0.1 nM radiolabeled chemokine (purchased from New England Nuclear, Massachusetts) in 200 µl aliquots at room temperature for 60 minutes. The cells were either incubated with radiolabeled chemokine alone, or together with unlabeled chemokines (from PeproTech) as competitors, which were used at the indicated concentrations. At the end of incubation, cells were washed 3 times in the binding buffer, each wash consisting of centrifugation in a microfuge at 7,000×g for 2 minutes. After the wash, the pellets were transferred into LP3 tubes and the radioactivity of the cells, which represented the amount of binding was measured in a gamma counter. All samples were in duplicates and all the experiments were repeated at least 3 times. Scatchard Plot was calculated from the binding data by MicroSoft Excell and CricketGraph on a Macintosh computer.
Figure 6: FIG. 6 is a histogram illustrating the binding of RANTES and MIP-1α to human eosinophils. […] Human eosinophils were incubated with 0.1 nM radiolabeled RANTES and the indicated concentrations of cold chemokines. […]

human eotaxin = biological target: B3; assay: Scatchard analysis of unlabeled eotaxin competition on E5 cells
Chain of human eotaxin (P51671 24-97 limits assumed): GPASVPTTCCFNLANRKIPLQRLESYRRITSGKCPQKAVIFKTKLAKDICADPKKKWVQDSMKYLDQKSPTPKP
Procedure: (§2) FIG. 11A) or to human eosinophils (FIG. 11B). […] After 60 minutes at room temperature, cell pellets were washed and counted. Scatchard plots of unlabeled eotaxin competition were calculated from the data (FIG. 11C, E5 cell line; FIG. 11D, eosinophils).
(§3) Competition is presented as the percentage of specific binding as calculated by $100(S-B)/(T-B)$, where S is the radioactivity of the sample, B as background binding and T as total binding without competitors. Background binding was obtained by incubating cells with radiolabeled chemokine and at least 400-fold excess of unlabeled chemokines. […] Duplicates were used throughout the experiments and the standard deviations were always less than 10% of the mean. All experiments were repeated at least three times. Curve fit was calculated by […] software.
(§4) The E5 cell line described in Example 6 was tested for its ability to bind radiolabeled eotaxin. […] In addition, both RANTES and MCP-3 were able to specifically compete for binding. None of the other chemokines tested, including MIP-1α, MIP-1β, or IL-8 were able to specifically compete for radiolabeled ligand (FIG. 12).

[2] = biological target: T1, C-C chemokine receptor 3 (CCR3, CKR-3) …; assay: Scatchard analysis of unlabeled eotaxin competition on human eosinophils
Procedure: as §2, §3, §4

[3] = biological target: T2, CCR1 on stable L1.2 transfectants (UniProt P32246 1-355, limits assumed); assay: 125I-RANTES binding to L1.2 CCR1 transfectants
T2 construct: whole, on cells; also called CKR-1; CC CKR1
T2 sequence (looked up): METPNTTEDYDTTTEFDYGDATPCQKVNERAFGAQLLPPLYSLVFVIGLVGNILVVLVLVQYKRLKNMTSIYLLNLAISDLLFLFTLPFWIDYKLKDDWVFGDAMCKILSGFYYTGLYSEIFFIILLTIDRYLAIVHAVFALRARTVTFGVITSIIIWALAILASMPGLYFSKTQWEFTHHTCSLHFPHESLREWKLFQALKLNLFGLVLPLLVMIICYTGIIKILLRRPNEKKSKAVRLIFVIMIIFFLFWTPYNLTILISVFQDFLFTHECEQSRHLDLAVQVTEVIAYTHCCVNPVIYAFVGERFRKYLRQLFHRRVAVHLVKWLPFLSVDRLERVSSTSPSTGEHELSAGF

[4] = biological target: T3, receptor encoded by the A31 cDNA clone (human CKR-3 / Eos L2) (human, UniProt P51677 1-355); assay: Scatchard analysis, 125I-RANTES on membranes of A31-293-#20 cells
T3 construct: one RBL transfectant is also mentioned
T3 sequence: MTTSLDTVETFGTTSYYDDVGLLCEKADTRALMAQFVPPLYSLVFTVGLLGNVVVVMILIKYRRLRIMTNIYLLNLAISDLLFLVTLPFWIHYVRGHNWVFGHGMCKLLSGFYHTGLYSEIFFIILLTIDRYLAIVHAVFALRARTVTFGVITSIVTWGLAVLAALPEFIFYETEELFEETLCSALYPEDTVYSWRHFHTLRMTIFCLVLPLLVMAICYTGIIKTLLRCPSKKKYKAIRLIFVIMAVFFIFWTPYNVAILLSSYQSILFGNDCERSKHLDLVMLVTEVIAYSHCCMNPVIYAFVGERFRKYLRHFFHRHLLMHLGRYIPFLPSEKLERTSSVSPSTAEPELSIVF
Procedure: Plates were grown to confluence, and membranes were prepared as follows. Culture medium was removed, and the cells were washed with phosphate buffered saline. Cells were harvested by washing with TEN (40 mM TRIS, pH 7.5, 1 mM EDTA, and 150 mM NaCl). The cells were frozen in liquid nitrogen, thawed at room temperature, and the membrane fraction was collected by centrifugation in a conical tube for 10 minutes at 18,000 rpm. Each binding point was determined using one-half of the membranes harvested from a single 100 mm plate grown to confluence.
Binding assays were performed as described by Van Riper, G. et al., J. Exp. Med., 177: 851 (1993), with the following modifications. […] Binding buffer was 50 mM Hepes, 1 mM CaCl_2, 5 mM MgCl_2, 0.5% BSA, pH 7.2. Radiolabeled and cold ligand were added simultaneously to the membranes (see above), and incubated for 1.5 hours at room temperature. […] Activity retained on filters after washing was determined by scintillation counting. Filters were placed in 5 cc of scintillation fluid and were then counted in a miniaxi-beta liquid scintillation counter (United Technologies, Packard, Downers Grove, Ill.). All points were determined in triplicate, except for the point at 2 nM, which was determined in duplicate. […]

[5] = biological target: T1, C-C chemokine receptor 3 (CCR3, CKR-3) …; assay: Scatchard analysis, radioligand binding to human eosinophils
Procedure: as §1, with “In” for “Cells transfected with Eos L2 receptors or normal human eosinophils purified (see above) were washed in Hanks Balanced Saline Solution (HBSS), then resuspended in binding buffer: 50 mM HEPES, 1 mM CaCl_2, 5 mM MgCl_2, 0.5% Bovine Serum Albumin (BSA), pH 7.3. In”
(§5) Figure 6: FIG. 6 is a histogram illustrating the binding of RANTES and MIP-1α to human eosinophils. […] Human eosinophils were incubated with 0.1 nM radiolabeled RANTES and the indicated concentrations of cold chemokines. The data plotted are the means and standard deviations of duplicates for each sample.

[6] = biological target: T1, C-C chemokine receptor 3 (CCR3, CKR-3) …; assay: inhibition of 0.1 nM 125I-eotaxin binding to human eosinophils by varied 7B11
[7] = biological target: T1, C-C chemokine receptor 3 (CCR3, CKR-3) …; assay: inhibition of 0.1 nM 125I-RANTES binding to human eosinophils by varied 7B11
[8] = biological target: T1, C-C chemokine receptor 3 (CCR3, CKR-3) …; assay: inhibition of 0.1 nM 125I-MCP-3 binding to human eosinophils by varied 7B11
[9] = biological target: T4, MIP-1α binding sites on human eosinophils; assay: Scatchard analysis, radioligand binding to human eosinophils
T4 construct: also called receptor for MIP-1α on eosinophils
Procedure: as §1, with “In” for “Cells transfected with Eos L2 receptors or normal human eosinophils purified (see above) were washed in Hanks Balanced Saline Solution (HBSS), then resuspended in binding buffer: 50 mM HEPES, 1 mM CaCl_2, 5 mM MgCl_2, 0.5% Bovine Serum Albumin (BSA), pH 7.3. In”
as §5

B1: MCP-3 (ligand)
chain: not shown
modifications: 125I label where used as radioligand
notes: also called human MCP-3
B1: binds [1].

B2: FLAG-tagged Eos L2 (CKR-3) receptor (receptor)
chain: MDYKDDDDKEFTTSLDTVETFGTTSYYDDVGLLCEKADTRALMAQFVPPLYSLVFTFGLLGNVVVVMILIKYRRLRIMTNIYLLNLAISDLLFLVTLPFWIHYVRGHNWVFGHGMCKLLSGFYHTGLYSEIFFIILLTIDRYLAIVHAVFALRARTVTFGVITSIVTWGLAVLAALPEFIFYETEELFEETLCSALYPEDTVYSWRHFHTLRMTIFCLVLPLLVMAICYTGIIKTLLRCPSKKKYKAIRLIFVIMAVFFIFWTPYNVAILLSSYQSILFGNDCERTKHLDLVMLVTEVIAYSHCCMNPVIYAFVGERFRKYLRHFFHRHLLMHLGRYIPFLPSEKLERTSSVSPSTAEPELSIVF
notes: Receptor from the 1.8 kb genomic HindIII fragment, expressed on L1.2 (L1-2) pre-B cells, 293 cells or baculovirus-infected Sf9 cells; also called Eos L2 receptor fusion protein; CKR-3/pcDNA3 product
With B2 the Kd (human eotaxin) was 1.5 nM.

B3 gave a Kd [2] of 0.5 nM.

B4: RANTES (ligand, human, UniProt P13501 24-91, looked up)
chain: SPYSSDTTPCCFAYIARPLPRAHIKEYFYTSGKCSNPAVVFVTRKNRQVCANPEKKWVREYINSLEMS
modifications: also: 125I label where used as radioligand
notes: also called cold RANTES
For B4, the binding result [3] was “binds”, the Kd [4] was about 2.5 nM and the Kd [5] was 0.883 nM.

B5: monoclonal antibody 7B11 (ATCC Accession No. HB-12195) (antibody, V domains shown)
VH: MVQLQQSGTVLARPGASVRMSCKTSGYTFTNYRMHWVRQRPGQGLEWIGSIYPGHTETTYNQNFKDKAKLTAVTSATTAYMGLSSLTNEDSAVYYCTRSGGNYWGQGTTVTVSS
VL: DIQMTQSPSSLSASLGERVSLTCRASQDIGSSLNWLQQKPDGTFIRLIYATSSLDSGVPRRFSGSRSGSDYSLTISSLESEDFVDYYCLQYATFPLTFGAGTKLEIK
For B5, the IC50 [6] was 0.0257 µg/mL, the IC50 [7] was 0.0137 µg/mL and the IC50 [8] was 0.0188 µg/mL.

B6: MIP-1α (ligand, human, UniProt P10147 23-92, looked up)
chain: ASLAADTPTACCFSYTSRQIPQNFIADYFETSSQCSKPGVIFLTKRSRQVCADPSEEWVQKYVSDLELSA
modifications: also: 125I label where used as radioligand
notes: also called macrophage inflammatory protein 1α
B6 gave a Kd [9] of 0.091 nM.
